The supplement of paper PMC12455559
± gives the standard deviation of the averaged measurements.

Legend:
[1] = melting temperature (DSF); higher = more thermostable
Outline: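 Candidate enzymes were expressed in E. coli C41(DE3), purified on nickel beads and released by SUMO protease cleavage. For differential scanning fluorimetry, 45 μL enzyme (0 to 0.3 mg/mL) was mixed with 5 μL 5X Sypro Orange in sealed PCR plates on a Bio-Rad CFX96 instrument. Fluorescence was read from 25 °C in steps of 0.3 °C per cycle (ramp 0.3 °C/s) for 250 cycles. The read-out is melting temperature.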

[2] = purified protein yield per well (BCA); higher = higher soluble expression
Outline: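 Each candidate enzyme was grown in E. coli C41(DE3) in a 2 mL autoinduction culture (100 µg/mL kanamycin; 2 h at 37 °C, then 40 h at 18 °C) and purified robotically via Ni-charged magnetic beads with SUMO protease cleavage. Purified protein yield per well was assessed using the Pierce Rapid Gold BCA kit. Readings below 25 ug (0.1 mg/mL) are beneath the detection threshold.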

[3] = PET hydrolysis, aromatic products released after 48 h (umol product/mg enzyme); higher = more PET depolymerization activity
Outline: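 Candidate enzymes, made tagless by SUMO cleavage and purified on nickel beads, were added at 5 μg (50 μL) to 3.5 mg of either amorphous PET film or crystalline PET powder in 450 μL buffer. The sealed plates stood unshaken for 48 h at 40 or 60 °C. Activity on PET is the aromatic product found in the supernatant per mg enzyme, read at 260 and 280 nm against buffer blanks.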

[4] = substrate: aFilm, 40 °C, pH 5.5
[5] = substrate: aFilm, 40 °C, pH 6.5
[6] = substrate: aFilm, 40 °C, pH 7.5
[7] = substrate: aFilm, 60 °C, pH 5.5
[8] = substrate: aFilm, 60 °C, pH 6.5
[9] = substrate: aFilm, 60 °C, pH 7.5
[10] = substrate: cryPow, 40 °C, pH 5.5
[11] = substrate: cryPow, 40 °C, pH 6.5
[12] = substrate: cryPow, 40 °C, pH 7.5
[13] = substrate: cryPow, 40 °C, pH 8.5
[14] = substrate: cryPow, 60 °C, pH 5.5
[15] = substrate: cryPow, 60 °C, pH 6.5
[16] = substrate: cryPow, 60 °C, pH 7.5
[17] = substrate: cryPow, 60 °C, pH 8.5
[18] = substrate: aFilm, 40 °C, pH 4.5
[19] = substrate: aFilm, 60 °C, pH 4.5
[20] = substrate: cryPow, 40 °C, pH 4.5
[21] = substrate: cryPow, 60 °C, pH 4.5

| Sequence | melting temperature [1] | purified protein yield per well [2] | PET hydrolysis [3, 4] | PET hydrolysis [3, 5] | PET hydrolysis [3, 6] | PET hydrolysis ([3]; substrate: aFilm, 40 °C, pH 8.5) | PET hydrolysis [3, 7] | PET hydrolysis [3, 8] | PET hydrolysis [3, 9] | PET hydrolysis ([3]; substrate: aFilm, 60 °C, pH 8.5) | PET hydrolysis [3, 10] | PET hydrolysis [3, 11] | PET hydrolysis [3, 12] | PET hydrolysis [3, 13] | PET hydrolysis [3, 14] | PET hydrolysis [3, 15] | PET hydrolysis [3, 16] | PET hydrolysis [3, 17] | PET hydrolysis [3, 18] | PET hydrolysis [3, 19] | PET hydrolysis [3, 20] | PET hydrolysis [3, 21] |
| --- | --- | --- | --- | --- | --- | --- | --- | --- | --- | --- | --- | --- | --- | --- | --- | --- | --- | --- | --- | --- | --- | --- |
| ANPYERGPDPTLASVEATSGTFAYASLSVSSGNGFGGGTIYYPTSTTDGTFAGIVTCPGFTNSGSSMAWFGKVLASQGFVTLVMNPKSNLDFPDARATQMLAALDWLTNSSSVKTRIDATRLGVLGQSMGGGATLKASKTRPSLKASFATAPYNSDKDWSTNTVPQFLFGMQNDTTAAVTNHALKFYNSLPATTPKIYAELRGAGHSTATSPNTSIRRYAVSFMKRNLDNDTRYSQFLCPGPTITSSSPLSAFMSNCLF [DP080] | 63.1 C | 291 µg | < 3 | < 3 | < 3 | 1.5 ± 2.1 | < 3 | < 3 | < 3 | < 3 | < 3 | 2 ± 2.8 | 6 | 8 ± 1.4 | < 3 | < 3 | < 3 | < 3 | – | – | – | – |
| ANPYERGPNPTQALLEARSGPFSVSSERAWRLGSDGFGGGTIYYPRENNTYGAVAISPGYTGTQASVAWLGERIASHGFVVITIDTNTTLDQPDSRADQLEAALDHMVDGASSTVRSRIDRNRLAVMGHSMGGGGTLRLASQRPDLKAAIPLTPWHLNKSWSNVQVPTLIIGADLDTIAPVLTHAEPFYNSIPTSTRKAYLELDGATHFAPNITNSTIGMYSVAWLKRFVDEDTRYTQFLCPGPRTGLFSDVEEYRSTCPF [TEP014] | 54.1 C | 267 µg | < 3 | < 3 | < 3 | – | < 3 | < 3 | < 3 | – | < 3 | 1.5 ± 2.1 | 4.5 ± 0.71 | – | < 3 | < 3 | < 3 | – | < 3 | < 3 | < 3 | < 3 |
| APDTVVGNPFARGPDPTKESIEAERGPFAVATEKVPGGKGFGGGTIHYPTDTSQGTFGAIAVAPGFTESESAIAWYGPRLASQGFVVITISTNGLWDLPASRADQLLAALRHVTDASQIKSRVDRDRLAVMGHSMGGGGSLIAARNNPALKATIPLTGWNPNTSFSDLKVPTFVVSAQNDFIAPDGSHSRPFYQSLPASLNKAYMRLAGVGHMAPVNPNVTIAKYSISWLKRFVDNDTRYSQFLCPLPTGDPKIAAYEGTCPLS [DP008] | 50.5 C | 67 µg | – | – | – | – | – | – | – | – | 4 | 20 | 40 | 50 | < 3 | 9 | 9 | 9 | – | – | – | – |
| APGPSAPCSNCTRGPNPTEASLKSDRGPFTTARFSVSGFLKGFGDSTVYYPTNTTGRMGAIAVIPGYLSYESSIEWWGPRLASHGFVVMTMNTSTIYDQPDSRATQLSKALDYLIAQSNTSSSPIYNKIDSTRLGAIGWSMGGGGSLKLSTQRSLNAIIPQAPWYSGSNSFNTIKTPALILACSADTVAPVSVHASPFYNRIPGSTPKAFLEIYGGSHFCANSGYPNEDLLGLYGIAWMKRFIDFDNRYSQFLCGPNHEGDFAISDYRQNCPY [ESM096] | 52 C | 33.4 µg | – | – | – | – | – | – | – | – | < 3 | 6 | 22 | – | – | – | – | – | – | – | < 3 | – |
| APNAAIAAAPRVAPAANPYERGPAPTEESVKAEKGPFDIAQMPVPGGAGVFGGGTIWYPKDEAGPFGAVVVSPGFMTLEPLIQWYGRTLASHGFVVMTMATITPIDPPFSRGDELRSALDYLVTKSTVKDKIDPTRTALMGHSMGGGGTLDAASKLPDLKAAIPLAPWNLDYAPPAKIKAPTLIIGADNDPIAPTAAFADPFYAALTTQNRAYLKLKNAGHTFSFLGYNPTITKYTVSWLKRFVDNDTRYDQFLCPIPAASDTVAAYQGTCPLT [DP091] | 53.8 C | 32 µg | – | – | – | – | – | – | – | – | < 3 | < 3 | < 3 | < 3 | – | – | – | – | – | – | – | – |
| APPARVAALATTAYQRGPAPTLSGVRAALGPFSYSTASVSAAATGYTFGGGTVYYPDDTSQGTFGGIAVTPGYTGTEGSIAWLGPRLASQGFVVITIATKSLYDQPTARGQQLLAALDYLKTYSPAAVRQRLDPQRLAVSGHSMGGGGALYAVWSRPSLKAAVPLAPYHTIKNWSAITVPTLIEAGTADTVTPVGTFAEPIYQSLTGASERAYAEVAGANHLTFTAENPLIGGLEVAWMKRFVDDDARYDQFLCPAPTDPGLTEYRDSCPTS [TEP101] | 56.5 C | 377 µg | < 3 | < 3 | < 3 | – | < 3 | < 3 | < 3 | – | 9 ± 1.4 | 18.5 ± 0.71 | 24 ± 2.8 | – | 3 | 7.5 ± 0.71 | 7.5 ± 0.71 | – | < 3 | < 3 | < 3 | < 3 |
| AQENPYERGPAPTAQNITEDGPFAYATATVPAQSGFAGGAIYYPTDTSQGTFGAVAAVPGFLTPVDDVAWMGPRLASHGFVVFTIEPNSRFEFPSGRAAALKAGLTYLTQSSAVRDRVDPTRLAVAGHSMGGGAALEAALKDPNLKAAVALQPWHTGVNFSTVNVPSMIVGAENDPIASPASHAEPFYEQIPAASEKAYLNLAGVGHEVGGVVTNDTQSSMMLTWLKRYVDNDTRYEPFMCPGPSGSSVLEYRGTCPG [TEP170] | 49.3 C | 137 µg | – | – | – | – | – | – | – | – | < 3 | < 3 | < 3 | – | < 3 | < 3 | < 3 | – | – | – | < 3 | < 3 |
